± gives the uncertainty stated by the source.
Test: self-splicing fitness, log relative to wild type (ln ratio); higher = more splicing; Tetrahymena group I intron in knt gene, E. coli kanamycin selection, DiMSum; sequences stand for … in CUCUCU…GGAGGGAAAAGUUAUCAGGCAUGCACCUGGUAGCUAGUCUUUAAACCAAUAGAUUGCAUCGGUUUAAAAGGCAAGACCGUCAAAUUGCGGGAAAGGGGUCAACAGCCGUUCAGUACCAAGUCUCAGGGGAAACUUUGAGAUGGCCUUGCAAAGGGUAUGGUAAUAAGCUGACGGACAUGGUCCUAACCACGCAGCCAAGUCCUAAGUCAACAGAUCUUCUGUUGAUAUGGAUGCAGUUCACAGACUAAAUGUCGGUCGGGGAAGAUGUAUUCUUCUCAUAAGAUAUAGUCGGACCUCUCCUUAAUGGGAGCUAGCGGAUGAAGUGAUGCAACACUGGAGCCGCUGGGAACUAAUUUGUAUGCGAAAGUAUAUUGAUUAGUUUUGGAGUACUCGUGGUCG
Summary of the method: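 The eight P1ex-region nucleotides of an intron in the knt kanamycin-resistance gene on pET-22b(+) were all randomised and the library put into E. coli BL21(DE3). Six replicate transformations were grown overnight at 37°C or 30°C on LB agar with or without 25 μg/mL kanamycin, together with 100 μg/mL carbenicillin, 50 μM IPTG and 0.2% rhamnose. Colonies were pooled and amplicon-sequenced on an Illumina HiSeq 2500. Fitness from DiMSum is the error-weighted combination of wild-type-normalised replicate fold changes, kanamycin over none.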

Row | Sequence | self-splicing fitness (ln) (30 °C) | self-splicing fitness (ln) (37 °C)
1 | ACAAAGCAAUAUUACGUCUC | -4.03 ± 0.18 | -2.09 ± 0.14
2 | ACAAAGCAAUAUUACGUUAG | -2.73 ± 0.11 | -2.69 ± 0.17
3 | ACAAAGCAAUAUUACGUUGG | -2.44 ± 0.068 | -1.57 ± 0.079
4 | ACACAGCAAUAUUACGAAUC | -3.22 ± 0.15 | -2.63 ± 0.21
5 | ACACAGCAAUAUUACGACCA | -0.337 ± 0.085 | 0.147 ± 0.093
6 | ACACAGCAAUAUUACGACGG | -0.479 ± 0.073 | -0.0997 ± 0.11
7 | ACACAGCAAUAUUACGAGCG | -0.734 ± 0.074 | -0.104 ± 0.088
8 | ACACAGCAAUAUUACGAGGU | -2.85 ± 0.13 | -2.04 ± 0.14
9 | ACACAGCAAUAUUACGAUCG | -0.738 ± 0.077 | -0.032 ± 0.1
10 | ACACAGCAAUAUUACGAUGG | -1.53 ± 0.064 | -0.66 ± 0.082
11 | ACACAGCAAUAUUACGCAAG | -1.7 ± 0.1 | -0.825 ± 0.11
12 | ACACAGCAAUAUUACGCAGC | -3.73 ± 0.19 | -2.47 ± 0.17
13 | ACACAGCAAUAUUACGCGAU | -3.11 ± 0.11 | -2.02 ± 0.11
14 | ACACAGCAAUAUUACGCGCC | -0.614 ± 0.11 | -1.13 ± 0.1
15 | ACACAGCAAUAUUACGCUAC | -3.73 ± 0.35 | -2.63 ± 0.26
16 | ACACAGCAAUAUUACGCUAU | -2.81 ± 0.082 | -1.53 ± 0.079
17 | ACACAGCAAUAUUACGGAAU | -2.58 ± 0.084 | -2.31 ± 0.15
18 | ACACAGCAAUAUUACGGACU | -0.884 ± 0.054 | 0.0735 ± 0.063
19 | ACACAGCAAUAUUACGGAGA | -4.21 ± 0.21 | -2.23 ± 0.14

Row | Sequence | self-splicing fitness (ln) (30 °C) | self-splicing fitness (ln) (37 °C)
20 | ACACAGCAAUAUUACGGCGC | -0.533 ± 0.067 | 0.309 ± 0.079
21 | ACACAGCAAUAUUACGGGGA | -2.3 ± 0.077 | -0.729 ± 0.067
22 | ACACAGCAAUAUUACGGUGG | -2.44 ± 0.08 | -1.67 ± 0.099
23 | ACACAGCAAUAUUACGUCCA | -1.09 ± 0.089 | -0.474 ± 0.096
24 | ACACAGCAAUAUUACGUCUU | -1.17 ± 0.046 | 0.012 ± 0.058
25 | ACACAGCAAUAUUACGUGGA | -2.25 ± 0.096 | -1.18 ± 0.066
26 | ACAGAGCAAUAUUACGAAAU | -2.57 ± 0.45 | -1.01 ± 0.29
27 | ACAGAGCAAUAUUACGAAGU | -2.65 ± 0.14 | -2.58 ± 0.29
28 | ACAGAGCAAUAUUACGAGGA | -3.04 ± 0.21 | -2.49 ± 0.23
29 | ACAGAGCAAUAUUACGAUGG | -3.24 ± 0.14 | -3.32 ± 0.23
30 | ACAGAGCAAUAUUACGCACA | – | -1.39 ± 0.36
31 | ACAGAGCAAUAUUACGCACG | -3.11 ± 0.22 | -3.43 ± 0.25
32 | ACAGAGCAAUAUUACGCCAC | -2.45 ± 0.38 | -1.33 ± 0.43
33 | ACAGAGCAAUAUUACGCCAU | -3.46 ± 0.42 | -1.97 ± 0.23
34 | ACAGAGCAAUAUUACGCGAG | -2.31 ± 0.14 | -2.43 ± 0.16
35 | ACAGAGCAAUAUUACGCGGA | -3.57 ± 0.29 | -2.62 ± 0.19
36 | ACAGAGCAAUAUUACGCGGC | -3.41 ± 0.3 | -2.18 ± 0.37
37 | ACAGAGCAAUAUUACGCGGU | -4.3 ± 0.41 | -2.43 ± 0.28

Source: the supplement of paper PMC7877785
